Measurements taken from patent US11999805B1, “Peptide inhibitors of CRISPR-Cas9” (priority 2020, dated 2024).
Entries after “also recorded” stand apart in the source; their conditions may differ. Read-outs that look alike come from different tables or passages of the source.

Experiments:
SpyCas9 [1] = target: T1, SpyCas9 (Streptococcus pyogenes serotype M1, UniProt Q99ZW2); format: biochemical, S. pyogenes
Method: To determine whether synthetic peptides would inhibit Cas9 cleavage activity, 200 peptide sequences were selected for chemical synthesis based on the following criteria: (1) peptides enriched after independent panning on RNP immobilized on both the Monomeric Avidin and NeutrAvidin columns, (2) Higher Boman index (>2.3), the computed potential protein-protein interaction for a given amino-acids sequence (3) a predicted instability index below 50. Theses peptides were screened at 200 μM for inhibition of Cas9 cleavage activity using the recently developed HT FRET-based assay using a dual-quencher substrate with low background and high sensitivity. See Seamon K J, Light Y K, Saada E A, Schoeniger J S, Harmon B. 2018. Versatile High-Throughput Fluorescence Assay for Monitoring Cas9 Activity. Analytical Chemistry 90:6913-6921. This assay specifically measures DNA substrate cleavage, and is able to differentiate between cleavage of a single strand of DNA and cleavage of both DNA strands.
Reactions (10 μL tubes) were set up in Cas9 reaction buffer (20 mM Tris-HCl, pH 7.5, 100 mM NaCl, 5 mM MgCl2, 0.1 mM EDTA) containing 50 nM annealed DNA substrate, 1.5 μM sgRNA, and 500 nM Cas9 in the wells of a black low volume 384-well plate. The reactions were incubated for 1 hour at ambient temperature; then, 10 μL of 8 M Gdn-HCl was added to quench the reaction before the plates were covered with an aluminum seal and incubated at 80° C. for 10 minutes. The fluorescence was read in a Tecan Infinite M1000 or SPARK plate spectrofluorometer (Tecan).
The peptides were diluted 2-fold from 200 to 12.5 μM and incubated for 1 hour with 500 nM SpyCas9, gRNA prior to addition of 50 nM FRET DNA substrate for 1 hour. […] Data are the average ±SD of three replicate wells.
(§1) For the 11 original peptides reactions (10 μL) were set up in Cas9 reaction buffer [20 mM Tris-HCl, pH 7.5, 100 mM NaCl, 5 mM MgCl2, 0.1 mM EDTA] containing 50 nM annealed DNA substrate, 1.5 μM sgRNA, and 0.5 μM Cas9 in the wells of a black low volume 384-well plate. The reactions were incubated for 1 hour at ambient temperature with the indicated concentration of peptide; then, 10 μL, of 8 M Guanidine-HCl was added to quench the reaction. The plates were covered with an aluminum seal and incubated at 75° C. for 10 minutes and cooled down to RT before reading.
(§2) The % inhibition was determined by subtracting normalized relative fluorescent value to Cas9 without peptides (% activity) from 100% cleavage activity of CjeCas9, SauCas9, SpyCas9 by FRET assay. Data are the average ±SD of eleven replicate wells from three technical replicates at the indicated concentration of peptides.
(§3) FIGS. 12A, 12B, and 12C show graphs of measurements and fitted curves of concentration dependent inhibition of mutated peptides against Cas9 variants. The inhibition was measured as relative fluorescent value to Cas9 without peptides (% activity) of CjeCas9 (line with squares), SauCas9 (line with diamonds), SpyCas9 (line with triangles) by FRET assay with the indicated concentration of peptides and compared to original peptides (line with circles). Data are the average ±SD of eleven replicate wells from three technical replicates.

SauCas9 = target: T2, SauCas9 (Staphylococcus aureus, UniProt J7RUA5); assay: HT FRET-based Cas9 cleavage activity assay, SauCas9; format: biochemical, S. aureus
T2 construct: made in house; host or cells: E. coli BL21(star)DE3
T2 sequence (J7RUA5 whole entry, looked up): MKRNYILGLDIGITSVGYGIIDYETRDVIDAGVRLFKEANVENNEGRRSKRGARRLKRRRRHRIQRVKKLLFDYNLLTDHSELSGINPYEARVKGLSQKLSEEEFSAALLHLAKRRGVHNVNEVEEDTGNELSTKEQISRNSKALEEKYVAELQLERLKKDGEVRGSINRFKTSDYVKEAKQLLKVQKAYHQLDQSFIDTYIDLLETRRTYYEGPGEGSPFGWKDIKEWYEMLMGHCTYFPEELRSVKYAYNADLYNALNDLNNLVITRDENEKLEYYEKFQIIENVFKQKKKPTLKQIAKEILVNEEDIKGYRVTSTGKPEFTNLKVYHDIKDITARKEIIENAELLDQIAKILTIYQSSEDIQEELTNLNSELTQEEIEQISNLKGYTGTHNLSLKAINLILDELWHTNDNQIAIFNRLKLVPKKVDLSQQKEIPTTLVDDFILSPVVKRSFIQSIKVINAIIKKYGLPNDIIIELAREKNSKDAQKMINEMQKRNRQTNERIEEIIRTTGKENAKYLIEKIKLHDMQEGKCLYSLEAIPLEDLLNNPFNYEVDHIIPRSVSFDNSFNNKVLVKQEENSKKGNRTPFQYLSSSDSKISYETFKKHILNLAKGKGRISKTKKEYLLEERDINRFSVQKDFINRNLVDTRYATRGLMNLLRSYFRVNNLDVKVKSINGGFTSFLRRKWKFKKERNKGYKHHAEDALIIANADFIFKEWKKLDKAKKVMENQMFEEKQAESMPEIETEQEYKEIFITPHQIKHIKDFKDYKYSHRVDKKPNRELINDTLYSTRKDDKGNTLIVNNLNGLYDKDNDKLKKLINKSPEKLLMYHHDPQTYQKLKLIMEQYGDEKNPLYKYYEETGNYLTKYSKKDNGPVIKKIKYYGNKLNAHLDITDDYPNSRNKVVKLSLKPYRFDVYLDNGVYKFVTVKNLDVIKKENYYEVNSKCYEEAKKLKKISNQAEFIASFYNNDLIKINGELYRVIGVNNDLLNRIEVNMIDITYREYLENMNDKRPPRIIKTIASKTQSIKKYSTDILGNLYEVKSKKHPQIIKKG
Method: To evaluate the ability of identified peptides to inhibit other Cas9 variants, SauCas9 and CjeCas9 cleavage assays were used to quantitatively measure changes in activity. […] The inhibition was measured as relative fluorescent value to Cas9 without peptides (% activity) of CjeCas9 (Top), SauCas9 (middle), SpyCas9 (bottom) by FRET assay with the indicated concentration of peptides. Data are the average ±SD of eleven replicate wells from three technical replicates.
as §1, §2, §3

SpyCas9 [2] = target: T1, SpyCas9; assay: Beacon DNA binding assay (Cas9 RNP binding to DNA substrate); set-up: species or system S. pyogenes
Method: To determine the mechanism of action of these peptide inhibitors, a binding assay was performed to determine if inhibitors are blocking Cas9 RNP binding to the DNA substrate. The beacon DNA binding assay was adapted and performed as described in Mekler V, Minakhin L, Semenova E, Kuznedelov K, Severinov K. 2016. Kinetics of the CRISPR-Cas9 effector complex assembly and the role of 3′-terminal segment of guide RNA. Nucleic Acids Res 44:2837-45. DNA probes were prepared from unmodified and chromophore-labeled DNA oligonucleotides synthesized by Integrated DNA Technologies. Equimolar amounts of synthetic complementary strands were mixed in a buffer containing 40 mM Tris, pH 7.9, 100 mM NaCl; heated for 2 min at 90° C. and slowly cooled to 20° C. The PAM-distal ends of the beacon target and non-target strands were labeled with fluorescein and Iowa Black® FQ, respectively. Both beacons mimic native target DNA and bind Cas9/sgRNA. The fluorescent signal is increased when Cas9 binds the DNA substrate and a helix forms with the target substrate strand and gRNA resulting in dissociation of oligo 3, leading to increase in fluorescent signal.
Data are the average ±SD of three replicate wells.

T1 sequence (Q99ZW2 whole entry): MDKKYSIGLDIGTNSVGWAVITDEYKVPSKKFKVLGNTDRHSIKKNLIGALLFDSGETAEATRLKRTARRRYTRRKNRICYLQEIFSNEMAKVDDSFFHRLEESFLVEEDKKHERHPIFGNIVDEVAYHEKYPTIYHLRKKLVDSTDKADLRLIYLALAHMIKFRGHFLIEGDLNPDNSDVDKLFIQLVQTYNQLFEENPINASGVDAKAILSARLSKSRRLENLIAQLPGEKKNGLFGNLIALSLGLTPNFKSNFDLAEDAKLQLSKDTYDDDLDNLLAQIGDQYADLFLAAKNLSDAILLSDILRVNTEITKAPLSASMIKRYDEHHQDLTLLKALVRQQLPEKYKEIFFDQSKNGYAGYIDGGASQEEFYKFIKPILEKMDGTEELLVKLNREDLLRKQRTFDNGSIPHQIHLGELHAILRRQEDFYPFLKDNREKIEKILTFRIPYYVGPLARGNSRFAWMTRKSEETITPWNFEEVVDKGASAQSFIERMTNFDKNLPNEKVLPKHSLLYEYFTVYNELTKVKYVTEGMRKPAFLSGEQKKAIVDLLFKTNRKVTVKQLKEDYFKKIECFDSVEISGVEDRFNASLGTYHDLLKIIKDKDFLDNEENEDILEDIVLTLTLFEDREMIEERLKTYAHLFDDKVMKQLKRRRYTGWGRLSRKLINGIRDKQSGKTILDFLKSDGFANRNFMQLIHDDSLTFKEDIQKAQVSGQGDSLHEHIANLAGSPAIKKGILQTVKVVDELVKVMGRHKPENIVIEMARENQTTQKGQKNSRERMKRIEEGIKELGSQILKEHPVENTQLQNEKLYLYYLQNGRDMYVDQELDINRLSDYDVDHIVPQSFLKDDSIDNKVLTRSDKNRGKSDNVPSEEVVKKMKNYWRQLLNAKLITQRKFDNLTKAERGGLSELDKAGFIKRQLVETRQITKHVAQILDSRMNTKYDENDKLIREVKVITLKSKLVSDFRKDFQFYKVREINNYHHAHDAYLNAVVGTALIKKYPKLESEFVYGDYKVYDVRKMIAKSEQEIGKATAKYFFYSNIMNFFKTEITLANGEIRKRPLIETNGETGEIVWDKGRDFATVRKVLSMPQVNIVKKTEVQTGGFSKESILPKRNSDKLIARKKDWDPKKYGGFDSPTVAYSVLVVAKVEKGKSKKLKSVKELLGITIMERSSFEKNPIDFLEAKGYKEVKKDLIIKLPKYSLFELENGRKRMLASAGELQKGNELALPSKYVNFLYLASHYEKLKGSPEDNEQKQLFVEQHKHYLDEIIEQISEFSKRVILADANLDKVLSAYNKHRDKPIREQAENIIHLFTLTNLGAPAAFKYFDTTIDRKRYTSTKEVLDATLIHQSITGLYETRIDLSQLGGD

Sequence: VYDFYRMLSHFFLKGPSR [Peptide 91]
- activity of SpyCas9 (% activity, FRET) (SpyCas9 [1]; peptide 100 μM): significantly reduced activity
- activity of SpyCas9 (% activity, FRET) (SpyCas9 [1]; peptide 200 μM): significantly reduced activity
- activity of SauCas9 (% activity, FRET) (SauCas9; peptide 100 μM): significantly reduced activity
- activity of SauCas9 (% activity, FRET) (SauCas9; peptide 200 μM): significantly reduced activity; also recorded: reduced SauCas9 activity
- mechanism subset: blocks Cas9 RNP binding to target DNA or other mechanism (SpyCas9 [2]): block Cas9 RNP binding to the target DNA
- binding of SpyCas9 RNP to DNA substrate (beacon fluorescence) (SpyCas9 [2]; peptide 40 μM, SpyCas9 500 nM, DNA substrate 50 nM): unaltered; also recorded: did not reduce substrate binding
